Assay: yeast display, Sf9 membrane polyspecificity reagent, FACS + sequencing; frameworks hold sequencing errors
How it was run: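 Synthetic nanobody libraries on Saccharomyces cerevisiae BJ5465 were galactose-induced for 36–48 hours, stained 1 hour at 4 °C with 10% biotinylated, detergent-solubilized Sf9 membrane reagent and enriched on streptavidin microbeads. FACS then separated cells into low and high (top ~1%) gates by anti-HA (expression) and streptavidin (reagent binding) fluorescence. Genes were colony-PCR amplified, MiSeq 2 × 250 sequenced and CDR-length filtered. A clone's polyreactivity label is that of its gate of origin.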

Sequence	polyreactivity (PSR sort gate)
QVQLVESGGGLVQAGGSLRLSCAASGITFPVYAMGWYRQAPGKERELVATITSSGGRTYYADSVKGRFTISRDNAKNTVYLQMNSLKPEDTAVYYCAARPPYIRTLYYWGQGTQVTVSS	high polyreactivity
QVQLVESGGGLVQAGGSLRLSCAASGITFPYYAMGWYRQAPGKERELVAAINGNGGRTYYADSVKGRFTISRDNAKNNVYLDMNSLKPEDTAVYYCADRVVHVKGPRMDYWGQGTQVTLSS	high polyreactivity
QVQLVESGGGLVQAGGSLRLSCAASGITFPYYAMGWYRQAPGKERELVAAISAGGTRTYYADSVKGRFTISRDNAKNTVYLQMNSLKPEDTAVYYCAARVWPIVQNYYWGQGTQVTVSS	high polyreactivity
QVQLVESGGGLVQAGGSLRLSCAASGITFQGNAMGWYRQAPGKEREFVAAISWSGDSTYYADSVKGRFTISRDNAKNTVYLQMNSLKPEDTAVYYCAASRVIPSYPYYKYDYWGQGTQVTVSS	low polyreactivity
QVQLVESGGGLVQAGGSLRLSCAASGITFQKYVMGWYRQAPGKEREFVAAITARGGTTYYADSVKGRFTISRDNAKNTVYLQMNSLKPEDTAVYYCAADLRRFQSYYYWGQGTQVTVSS	high polyreactivity
QVQLVESGGGLVQAGGSLRLSCAASGITFQRYAMGWYRQAPGKERELVAAITRGGSTNYADSVKGRFTISRDNAKNTVYLQMNSLKPEDTAVYYCAAGARYGYGYWGQGTQVTVSS	high polyreactivity
QVQLVESGGGLVQAGGSLRLSCAASGITFQYYAMGWYRQAPGKERELGAAITSSGVSTYYADSVKGRFTISRDNAKNTVYLQMNSLKPEDTAVYYCNTVVRGWSSSAYVYWGQGTQVTVSS	low polyreactivity
QVQLVESGGGLVQAGGSLRLSCAASGITFRAYVMGWYRQAPGKERELVAAINRRGGSTYYADSVKGRFTISRDNEKNTVYLQMNSLKPEDTAVYYCGNGDFDYWGQGTQVTVSS	high polyreactivity
QVQLVESGGGLVQAGGSLRLSCAASGITFRFYAMGWYRPAPGKEREFVAAISSRGGRTYYADSVKGRFTISRDNATNTVYLQMNSLKPEDTAVYYCAADFYYRTVATVTSVARYDYWGQGTQVTVSS	high polyreactivity
QVQLVESGGGLVQAGGSLRLSCAASGITFRGNAMGWYRQAPGKERELVAAISRRGGNTNYADSVKGRFTISRDNAKNTVYLQMNSLKPEDTAVYYCAADITTYRRGRYEYEYWGQGTQVTVSS	high polyreactivity
QVQLVESGGGLVQAGGSLRLSCAASGITFRGYVMGWYRQAPGKERELVADISRRGGSTYADSVKGRFTISRDNAKNTVYLQMNSLKPEDTAVYYCNAGWRPHNLNQVGYSSYGYYYWGQGTQVTVSS	high polyreactivity
QVQLVESGGGLVQAGGSLRLSCAASGITFRHYAMGWYRQAPGKEREFVAAITASGSSTYYADSVKGRFTISRDTAKNTVYLQMNSLKPEDTAVYYCAAAGYKYNSRGDYWGPGTQVTVSS	high polyreactivity
QVQLVESGGGLVQAGGSLRLSCAASGITFRKYAMGWYRPAPGKERELVAAISSGGSRTYYADSVKGRFTISRDNAKNTVYLQMNSLKPEDTAVYYCAARKADTVFKFEYWGQGTQVTVSS	high polyreactivity
QVQLVESGGGLVQAGGSLRLSCAASGITFRKYAMGWYRQAPGKERELVAGIRYSGSSTYYADSVKGRFTISRDNAKNTVYLQMNSLTPEDTAVYYCAVYGTTRYATTYDYWGQGTQVTVSS	high polyreactivity
QVQLVESGGGLVQAGGSLRLSCAASGITFRKYAMGWYRQAPGTERELVAAISAGGGRTFYADSVKGRFTISRDNAKNTVYLQMNSLKPEDTAVYYCNADLGIGYDYWGQGTQVTVSS	high polyreactivity
QVQLVESGGGLVQAGGSLRLSCAASGITFRLYAMGWYRPAPGKERELVAAISKRGGSTYYADSVKGRFTISRDNAKNTVYLQMNSLKPEDTAVYYCAADSGWEHRYDYWGQGTQVTVSS	high polyreactivity
QVQLVESGGGLVQAGGSLRLSCAASGITFRLYAMGWYRQAPGKEREFVAAISRRGGSTYYADSVKGRFTISRDNAKNTVYLQMNSLKPEDTAVYYCARYGLVYALGYWGQGTQVTVSS	high polyreactivity
QVQLVESGGGLVQAGGSLRLSCAASGITFRNYAMGWYRQAPGKEREFVAAIRWGGGSTYYEDSGKGRFTISLDNAKNTVYLQMNSLKPEDTAVYYCATRGYSRNNPYSRPYDYWGQGTQVTVSS	high polyreactivity
QVQLVESGGGLVQAGGSLRLSCAASGITFRRYALGWYRQAPGKERELVAAITSGGGTYYADSVKGRFTISRDNAKNTVYLQMNSLKPEDTAVYYCNTYYHWLTMDYWGQGTQVTVSS	high polyreactivity
QVQLVESGGGLVQAGGSLRLSCAASGITFRRYAMGWYRPAPGKERELVAVISVSGGRTHYADSVKGRFTISRDNAKNTVYLQMNSLKPEDTAVYYCAADFLRYPLGYWGQGTQVTVSS	high polyreactivity
QVQLVESGGGLVQAGGSLRLSCAASGITFRRYTMGWYRQAPGKERELVAAISRTGGSTYYADSVKGRFTISRDNAKNTVYLQMNSLKPEDTAVYYCAARPHRYTSRHGYWGQGTQVTVSS	high polyreactivity
QVQLVESGGGLVQAGGSLRLSCAASGITFRRYTMGWYRQAPGKERELVAAITSRGSSTYYADSVKGRFTISRDNAKNTVYLQMNSLKPEDTAVYYCAAQYRQRRHDYWGQGTQVTVSS	high polyreactivity

Sequence	polyreactivity (PSR sort gate)
QVQLVESGGGLVQAGGSLRLSCAASGITFRRYTMGWYRQAPGKERELVATISLSDGNTYYADSVKGRFTISRDNAKNTVYLQMNSLKPEDTAVYYCNALHTWHQTYYYWGQGTQVTVSS	low polyreactivity
QVQLVESGGGLVQAGGSLRLSCAASGITFRVYVMGWYRQAPGKERELVAAITRSGGRTYYADSVKGRFTISRDNAKNTVYLQMNSLKPEDTAVYYCAAEYDVYGIYEYDYWGQGTQVTVSS	high polyreactivity
QVQLVESGGGLVQAGGSLRLSCAASGITFRWYAMGWSRQAPGKERELVAAIDGGGSTYYADSVKGRFTISRDNAKNTVYLQMNSMKPEDTAVYYCAADYGRRYHTPYGWDYYYWGQGTQVTVSS	high polyreactivity
QVQLVESGGGLVQAGGSLRLSCAASGITFRWYAMGWYRQAPGKEREFVAAIDASGSTYYADSVKGRFTISRDNAKNTVYLQMNSLKPEDTAVYYCAADWDEYFGGDYWGQGTQVTVSS	low polyreactivity
QVQLVESGGGLVQAGGSLRLSCAASGITFRWYAMGWYRQAPGKERELVALIDGRGASTYADSVKGRFTISRDNAKNTVYLQMNSLKPEDTAVYYCAVAQVRVTYLWVRKFYYWGQGTQVTVSS	high polyreactivity
QVQLVESGGGLVQAGGSLRLSCAASGITFRYNAMGWYRQAPGKERELVAAISYSGGSTYYADSVKGRFTISRDNAKNTVYLQMNSLKPEDTAVYYCAARIYSYPRGQYDYWGQGTQVTVSS	low polyreactivity
QVQLVESGGGLVQAGGSLRLSCAASGITFRYYAKGWYRQAPGKERELVAAISRAGSTNYADSVKGRFTISRDNAKNTVYLQMNSLKPVDTAVYSCNARRRSTNAVSYRYITPYDYWGQGTQVTVSS	high polyreactivity
QVQLVESGGGLVQAGGSLRLSCAASGITFRYYAMGWYRQAPGKERELVADINRGSDTNYADSVKGRFTISRDNAKNTVYLQMNSLKPEDTAVYYCNAYWQGYGYDYWGQGTQVTVSS	low polyreactivity
QVQLVESGGGLVQAGGSLRLSCAASGITFRYYTMGWYRQAPGKERELVAAITTSGTGTYYADSVKGRFTISRDNAKNTVYLQMNSLNPEYSAVYYCATYPHIAVLSRYDYWGQGTQVTVSS	low polyreactivity
QVQLVESGGGLVQAGGSLRLSCAASGITFSAYAMGWYRQAPGKERELVARISTDADTYYADSVKGRFTISRDNAKNTVYLQMNSLKPEDTAVYYCNADWSWYNYYDFDYWGQGTQVTVSS	low polyreactivity
QVQLVESGGGLVQAGGSLRLSCAASGITFSFYVMGWDRQAPRKERELVAAISRGGSTYYADSVKGRFTISRDNAKNTVYLQMNSLKPEDTAVYYCAAVRLSRVYYWGQGTQVTVSA	high polyreactivity
QVQLVESGGGLVQAGGSLRLSCAASGITFSGNAKGWYRQAPGKERELDAAITFSGGITYYADSVKGRFTISRDNAKNTVFLQMNSLKPEDTAVYYSATDPIGGWTRPQRYGDDYWGQGTQVTVSS	low polyreactivity
QVQLVESGGGLVQAGGSLRLSCAASGITFSGNAMGWYRQAPGKEREFVAAITFSGGRTYYADSVKGRFTISRDNAKNTVYLQMNSLKPEDTAVYFCAAETPRGRWLGDYWGQGTQVTVSA	low polyreactivity
QVQLVESGGGLVQAGGSLRLSCAASGITFSGYDMGWYRQAPWKERELVASSTYYADSVKGRFTISRDNAKNTVYLQMNSLKPEDTAVYYCAADSPGDFGGYGFDYWGQGTQVTVSS	high polyreactivity
QVQLVESGGGLVQAGGSLRLSCAASGITFSKYAMGWYRQAPGKERELVASITWSGTSTYYADSVKGRFTISRDNAKNTVYLQMNSLKPEDTAVYYCAAEGWGTFWRPPNGYGYEHDYWGQGTQVTVSS	low polyreactivity
QVQLVESGGGLVQAGGSLRLSCAASGITFSNYSMGWYRQAPGKERELVAAISKRGGSTYYADSVKGRFTISRDNAKNTVYLQMNSLKPEDTAVYNCAAAGVRVYVRSGLDYWGQGTQVTVSS	high polyreactivity
QVQLVESGGGLVQAGGSLRLSCAASGITFSRNAMGWYRQAPGKERELVAVISTRGGRTYYADSVKGRFTISRDNAKNTVYLQMNSLKPEDTAVYYCAASPDPYWRRMDYWGQGTQVTVSS	high polyreactivity
QVQLVESGGGLVQAGGSLRLSCAASGITFSRYAMGWYRQAPGKERELVAAITARGGTTYYADSVKGRFTISRDNAKNTVYLQMNSLKPEDTAVYYCAAYKTYGSKYVFVDPGEYDYWGQGTQVTVSS	high polyreactivity
QVQLVESGGGLVQAGGSLRLSCAASGITFSRYAMGWYRQAPGKERELVAAITSSGGSTYYADSVKGRFTISRDNAKNTVYLQMNSLKPEDTAVYYCAATSYYTREQYYYWGQGTQVTVSS	high polyreactivity
QVQLVESGGGLVQAGGSLRLSCAASGITFSSYAMGWSRQAPGKERELVAAIRRRGGTTYYADSVKGPFTISRDNAKNTVYLQMNSLKPEDTAVYYCAARSKSAYWGQGTQVTVSS	high polyreactivity
QVQLVESGGGLVQAGGSLRLSCAASGITFSYALGWYRQAPGKERELVAGITTSGGSTYADSVKGRFTISRDNAKNTVYLQMNSLKPEDTAVYYCAADRSAVQFSAFLEYDYWGQGSQVTVSS	low polyreactivity

Source: the nanobody polyreactivity screen of Harvey et al. (2022)
